We go through one molecule from PMC11242946 (Molecules, 2024).

The experiment addresses T1, human ACE2 protein (human, UniProt Q9BYF1 18-740).
T1 construct: No catalogue number is printed; also called angiotensin-converting enzyme-2
As to the kind of experiment: adsorption isotherm on protein-coupled resin (depletion, micro-BCA). The settings on record: both partners purified.

T1 sequence (Q9BYF1 18-740): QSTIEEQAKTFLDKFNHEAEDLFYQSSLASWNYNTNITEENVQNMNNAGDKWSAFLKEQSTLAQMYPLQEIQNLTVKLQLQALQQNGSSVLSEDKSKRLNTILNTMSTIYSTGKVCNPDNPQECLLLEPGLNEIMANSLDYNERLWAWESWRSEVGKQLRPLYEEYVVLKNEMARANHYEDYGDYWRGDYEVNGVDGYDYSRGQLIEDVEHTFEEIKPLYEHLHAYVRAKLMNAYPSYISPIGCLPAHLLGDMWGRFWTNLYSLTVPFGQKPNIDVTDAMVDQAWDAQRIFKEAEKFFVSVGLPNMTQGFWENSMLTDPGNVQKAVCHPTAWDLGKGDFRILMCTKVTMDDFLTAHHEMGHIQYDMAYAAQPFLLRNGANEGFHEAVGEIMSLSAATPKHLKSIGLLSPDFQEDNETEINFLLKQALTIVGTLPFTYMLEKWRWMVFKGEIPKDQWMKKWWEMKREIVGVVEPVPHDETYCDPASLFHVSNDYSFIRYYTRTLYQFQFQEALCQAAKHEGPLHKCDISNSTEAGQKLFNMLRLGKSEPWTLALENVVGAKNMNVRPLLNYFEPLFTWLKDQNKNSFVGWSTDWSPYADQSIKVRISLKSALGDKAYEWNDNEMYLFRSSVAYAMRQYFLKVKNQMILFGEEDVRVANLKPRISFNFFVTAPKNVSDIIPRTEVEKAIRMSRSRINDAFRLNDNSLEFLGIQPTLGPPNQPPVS

Usually Kd stands for the concentration at which binding is half-saturated. Take KYPAY [functional peptide KYPAY (K5)]: the Kd came to 12.5 µM.
